{"source": "paper doi:10.1101/2024.10.14.618187", "about": "“Molecular basis of interchain disulfide-bond formation in BMP-9 and BMP-10” (bioRxiv, 2024)", "data": [{"molecular_target": "the molecule itself", "assay": "non-reducing SDS-PAGE after IMAC, with densitometry; His-tagged pro-proteins purified from expi293 conditioned medium by IMAC, run non-reduced and reduced; shows the disulfide-linked dimer beside the monomer; bands quantified with ImageJ", "values": [{"protein": "Pro-(fr)-Act-A (natural protein, human, UniProt P08476 27-426, looked up, human proINHBA residues 27-426; The results call it N-terminally histidine-tagged and purified by that tag; the methods say 'with no tag or processing site'; Furin processing incomplete; also called Pro-Activin-A; Pro-Act-A; source: expi293 (suspension HEK293), secreted; purified from conditioned medium by the histidine tag; not shown: His tag, N-terminal, kept) EGHSAAPDCPSCALAALPKDVPNSQPEMVEAVKKHILNMLHLKKRPDVTQPVPKAALLNAIRKLHVGKVGENGYVEIEDDIGRRAEMNELMEQTSEIITFAESGTARKTLHFEISKEGSDLSVVERAEVWLFLKVPKANRTRTKVTIRLFQQQKHPQGSLDTGEEAEEVGLKGERSELLLSEKVVDARKSTWHVFPVSSSIQRLLDQGKSSLDVRIACEQCQESGASLVLLGKKKKKEEEGEGKKKGGGEGGAGADEEKEQSHRPFLMLQARQSEDHPHRRRRRGLECDGKVNICCKKQFFVSFKDIGWNDWIIAPSGYHANYCEGECPSHIAGTSGSSLSFHSTVINHYRMRGHSPFANLKSCCVPTKLRPMSMLYYDDGQNIIKKDIQNMIVEECGCS", "binding result": "binds"}, {"protein": "Pro-(fr)-BMP-9 (natural protein, human, UniProt Q9UK05 23-429, looked up, human proBMP9 residues 23-429 with the natural furin site; secreted partially processed; Partly cut by furin into prodomain and growth factor (12 and 24 kDa forms on the gel); also called Pro-BMP-9 with unmodified furin processing site; wild-type BMP-9; source: expi293 (suspension HEK293), secreted; purified by IMAC; not shown: 8xHis, N-terminal, kept) KPLQSWGRGSAGGNAHSPLGVPGGGLPEHTFNLKMFLENVKVDFLRSLNLSGVPSQDKTRVEPPQYMIDLYNRYTSDKSTTPASNIVRSFSMEDAISITATEDFPFQKHILLFNISIPRHEQITRAELRLYVSCQNHVDPSHDLKGSVVIYDVLDGTDAWDSATETKTFLVSQDIQDEGWETLEVSSAVKRWVRSDSTKSKNKLEVTVESHRKGCDTLDISVPPGSRNLPFFVVFSNDHSSGTKETRLELREMISHEQESVLKKLSKDGSTEAGESSHEEDTDGHVAAGSTLARRKRSSGAGSHCQKTSLRVNFEDIGWDSWIIAPKEYEAYECKGGCFFPLADDVTPTKHAIVQTLVHLKFPTKVGKACCVPTKLSPISVLYKDDMGVPTLKYHYEGMSVAECGCR", "binding result": "binds"}, {"protein": "Pro-(X)-BMP-9 K357R (natural protein, human, UniProt Q9UK05 23-429, looked up, also called K357R BMP-9; source: expi293 (suspension HEK293), secreted; purified by IMAC; not shown: 8xHis, N-terminal, kept) KPLQSWGRGSAGGNAHSPLGVPGGGLPEHTFNLKMFLENVKVDFLRSLNLSGVPSQDKTRVEPPQYMIDLYNRYTSDKSTTPASNIVRSFSMEDAISITATEDFPFQKHILLFNISIPRHEQITRAELRLYVSCQNHVDPSHDLKGSVVIYDVLDGTDAWDSATETKTFLVSQDIQDEGWETLEVSSAVKRWVRSDSTKSKNKLEVTVESHRKGCDTLDISVPPGSRNLPFFVVFSNDHSSGTKETRLELREMISHEQESVLKKLSKDGSTEAGESSHEEDTDGHVAAGSTLAIEGRSSGAGSHCQKTSLRVNFEDIGWDSWIIAPKEYEAYECRGGCFFPLADDVTPTKHAIVQTLVHLKFPTKVGKACCVPTKLSPISVLYKDDMGVPTLKYHYEGMSVAECGCR", "binding result": "binds"}, {"protein": "Pro-(X)-BMP-9 G389S, K357R (natural protein, human, UniProt Q9UK05 23-429, looked up, also called G389S, K357R BMP-9; BMP-9 double mutant; source: expi293 (suspension HEK293), secreted; purified by IMAC; not shown: 8xHis, N-terminal, kept) KPLQSWGRGSAGGNAHSPLGVPGGGLPEHTFNLKMFLENVKVDFLRSLNLSGVPSQDKTRVEPPQYMIDLYNRYTSDKSTTPASNIVRSFSMEDAISITATEDFPFQKHILLFNISIPRHEQITRAELRLYVSCQNHVDPSHDLKGSVVIYDVLDGTDAWDSATETKTFLVSQDIQDEGWETLEVSSAVKRWVRSDSTKSKNKLEVTVESHRKGCDTLDISVPPGSRNLPFFVVFSNDHSSGTKETRLELREMISHEQESVLKKLSKDGSTEAGESSHEEDTDGHVAAGSTLAIEGRSSGAGSHCQKTSLRVNFEDIGWDSWIIAPKEYEAYECRGGCFFPLADDVTPTKHAIVQTLVHLKFPTKVSKACCVPTKLSPISVLYKDDMGVPTLKYHYEGMSVAECGCR", "binding result": "binds"}, {"protein": "Pro-(X)-BMP-9 (natural protein, human, UniProt Q9UK05 23-429, looked up, human proBMP9 residues 23-429, furin site RRKR replaced by factor X site IEGR; Secreted unprocessed as a monomer-dimer mixture; also called Pro-BMP-9 with factor-X processing site; Pro-BMP-9 wild-type; source: expi293 (suspension HEK293), secreted; purified from conditioned medium by IMAC; not shown: 8xHis, N-terminal, kept) KPLQSWGRGSAGGNAHSPLGVPGGGLPEHTFNLKMFLENVKVDFLRSLNLSGVPSQDKTRVEPPQYMIDLYNRYTSDKSTTPASNIVRSFSMEDAISITATEDFPFQKHILLFNISIPRHEQITRAELRLYVSCQNHVDPSHDLKGSVVIYDVLDGTDAWDSATETKTFLVSQDIQDEGWETLEVSSAVKRWVRSDSTKSKNKLEVTVESHRKGCDTLDISVPPGSRNLPFFVVFSNDHSSGTKETRLELREMISHEQESVLKKLSKDGSTEAGESSHEEDTDGHVAAGSTLAIEGRSSGAGSHCQKTSLRVNFEDIGWDSWIIAPKEYEAYECKGGCFFPLADDVTPTKHAIVQTLVHLKFPTKVGKACCVPTKLSPISVLYKDDMGVPTLKYHYEGMSVAECGCR", "binding result": "binds"}, {"protein": "Pro-(X)-BMP-9 G389S (natural protein, human, UniProt Q9UK05 23-429, looked up, also called G389S BMP-9; source: expi293 (suspension HEK293), secreted; purified by IMAC; not shown: 8xHis, N-terminal, kept) KPLQSWGRGSAGGNAHSPLGVPGGGLPEHTFNLKMFLENVKVDFLRSLNLSGVPSQDKTRVEPPQYMIDLYNRYTSDKSTTPASNIVRSFSMEDAISITATEDFPFQKHILLFNISIPRHEQITRAELRLYVSCQNHVDPSHDLKGSVVIYDVLDGTDAWDSATETKTFLVSQDIQDEGWETLEVSSAVKRWVRSDSTKSKNKLEVTVESHRKGCDTLDISVPPGSRNLPFFVVFSNDHSSGTKETRLELREMISHEQESVLKKLSKDGSTEAGESSHEEDTDGHVAAGSTLAIEGRSSGAGSHCQKTSLRVNFEDIGWDSWIIAPKEYEAYECKGGCFFPLADDVTPTKHAIVQTLVHLKFPTKVSKACCVPTKLSPISVLYKDDMGVPTLKYHYEGMSVAECGCR", "binding result": "binds"}]}]}
